Assay results taken from patent publication US20160030510.

Tested on: T1, MKI-EGFP fusion protein
T1 sequence: FPLKRHDKVDDLSK

Substance | phosphorylation of acetyl-CoA carboxylase (ACC) by AMPK in rat hippocampal neurons, pACC (Ser79) antibody | phosphorylation of endogenous tau at the 12E8 sites in rat hippocampal neurons, Western blot | phosphorylation of transfected HA-tagged human tau at the 12E8 sites in rat hippocampal neurons, immunostaining
AMP-activated kinase (AMPK) | MKI-EGFP did not affect the phosphorylation of acetyl-CoA carboxylase (ACC) by AMP-activated kinase (AMPK) |  | 
MARK4 (PAR-1/MARK kinases) acting on tau in rat hippocampal neurons |  | expression of an MKI-GFP fusion protein in rat hippocampal neurons effectively attenuated MARK4-mediated phosphorylation of both endogenous tau (FIG. 3A) and transfected human tau at the 12E8 sites (FIG. 3B) | expression of an MKI-GFP fusion protein in rat hippocampal neurons effectively attenuated MARK4-mediated phosphorylation of both endogenous tau (FIG. 3A) and transfected human tau at the 12E8 sites (FIG. 3B)
